# Source: patent US20220144960A1 (NANJING LEGEND BIOTECH, published 2022)
# Where a chain is given by its changes, count along the chain named.
# T1: CD30 on CD30-expressing tumor cell lines (HH, MJ, H9) (UniProt P28908 19-595)
# T1 sequence (looked up): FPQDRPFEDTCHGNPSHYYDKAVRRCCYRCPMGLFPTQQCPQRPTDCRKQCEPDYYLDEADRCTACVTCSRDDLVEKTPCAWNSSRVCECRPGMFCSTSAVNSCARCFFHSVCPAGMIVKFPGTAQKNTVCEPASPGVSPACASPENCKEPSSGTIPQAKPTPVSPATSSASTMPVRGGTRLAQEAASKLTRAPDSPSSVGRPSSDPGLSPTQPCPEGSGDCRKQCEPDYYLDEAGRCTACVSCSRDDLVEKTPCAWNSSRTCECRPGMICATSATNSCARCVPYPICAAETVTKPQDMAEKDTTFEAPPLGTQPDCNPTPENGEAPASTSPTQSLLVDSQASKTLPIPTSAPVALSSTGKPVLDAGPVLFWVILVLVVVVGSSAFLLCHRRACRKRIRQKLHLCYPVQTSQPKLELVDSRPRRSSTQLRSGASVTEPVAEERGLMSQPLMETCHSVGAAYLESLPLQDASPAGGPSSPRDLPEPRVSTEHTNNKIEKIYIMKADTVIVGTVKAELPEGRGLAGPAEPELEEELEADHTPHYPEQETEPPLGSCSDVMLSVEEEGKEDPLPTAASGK
# B1: AS48542VH5bbz CAR (other)
# chain: EVQLVESGGGLVQPGGSLRLSCATSAFTFDGPDMAWYRQAPGKGCELVSIISADGRTYYADSVKGRFTISRDNSKNTVYLQMNSLRAEDTAVYYCALDPRKNCRGGYCCANWGQGTLVTVSSTTTPAPRPPTPAPTIASQPLSLRPEACRPAAGGAVHTRGLDFACDIYIWAPLAGTCGVLLLSLVITLYCKRGRKKLLYIFKQPFMRPVQTTQEEDGCSCRFPEEEEGGCELRVKFSRSADAPAYKQGQNQLYNELNLGRREEYDVLDKRRGRDPEMGGKPRRKNPQEGLYNELQKDKMAEAYSEIGMKGERRRGKGHDGLYQGLSTATKDTYDALHMQALPPR
# B2: AS47863VH4bbz CAR (other)
# chain: EVQLVESGGGLVQPGGSLRLSCAASGSTFGDSDMGWYRQAPGKGCELVSIISSDGRTYYVDSVKGRFTISQDNSKNTLYLQMNSLRAEDTAVYYCAADLRQYCRDGRCCGYWGQGTLVTVSSTTTPAPRPPTPAPTIASQPLSLRPEACRPAAGGAVHTRGLDFACDIYIWAPLAGTCGVLLLSLVITLYCKRGRKKLLYIFKQPFMRPVQTTQEEDGCSCRFPEEEEGGCELRVKFSRSADAPAYKQGQNQLYNELNLGRREEYDVLDKRRGRDPEMGGKPRRKNPQEGLYNELQKDKMAEAYSEIGMKGERRRGKGHDGLYQGLSTATKDTYDALHMQALPPR
# B3: AS48463VH4bbz CAR (other)
# chain: EVQLLESGGGLVQPGGSLRLSCAASGFTFANSDMGWYRQAPGKGCELVSIISSHGGTTYYVDSVKGRFTISRDNSKNTLYLQMNSLRAEDTAVYYCVADPRSNCRGGYCCGYWGQGTLVTVSSTTTPAPRPPTPAPTIASQPLSLRPEACRPAAGGAVHTRGLDFACDIYIWAPLAGTCGVLLLSLVITLYCKRGRKKLLYIFKQPFMRPVQTTQEEDGCSCRFPEEEEGGCELRVKFSRSADAPAYKQGQNQLYNELNLGRREEYDVLDKRRGRDPEMGGKPRRKNPQEGLYNELQKDKMAEAYSEIGMKGERRRGKGHDGLYQGLSTATKDTYDALHMQALPPR
# B4: 5F11bbz CAR (other)
# chain: DIQMTQSPTSLSASVGDRVTITCRASQGISSWLTWYQQKPEKAPKSLIYAASSLQSGVPSRFSGSGSGTDFTLTISSLQPEDFATYYCQQYDSYPITFGQGTRLEIKGSTSGSGKPGSGEGSTKGQVQLQQWGAGLLKPSETLSLTCAVYGGSFSAYYWSWIRQPPGKGLEWIGDINHGGGTNYNPSLKSRVTISVDTSKNQFSLKLNSVTAADTAVYYCASLTAYWGQGSLVTVSSTTTPAPRPPTPAPTIASQPLSLRPEACRPAAGGAVHTRGLDFACDIYIWAPLAGTCGVLLLSLVITLYCKRGRKKLLYIFKQPFMRPVQTTQEEDGCSCRFPEEEEGGCELRVKFSRSADAPAYKQGQNQLYNELNLGRREEYDVLDKRRGRDPEMGGKPRRKNPQEGLYNELQKDKMAEAYSEIGMKGERRRGKGHDGLYQGLSTATKDTYDALHMQALPPR
# B5: AS48481bbz CAR (other)
# chain: EVQLVASGGGSVQAGETLRLSCTASGFTFADSAMGWYRKGPGNVCDLVAIIRTDGTTYYGDSAKGRFTISRDNAKSTLYLQMNSLKPEDTAVYFCAADRETSFIGGSWCVAKYWDQGTQVTVSSTTTPAPRPPTPAPTIASQPLSLRPEACRPAAGGAVHTRGLDFACDIYIWAPLAGTCGVLLLSLVITLYCKRGRKKLLYIFKQPFMRPVQTTQEEDGCSCRFPEEEEGGCELRVKFSRSADAPAYKQGQNQLYNELNLGRREEYDVLDKRRGRDPEMGGKPRRKNPQEGLYNELQKDKMAEAYSEIGMKGERRRGKGHDGLYQGLSTATKDTYDALHMQALPPR
# B6: AS53445bbz CAR (other)
# chain: QVQLVESGGGSVQAGGSLRLSCTASGYIFCMGWFRQAPGKAREGIATIYTGGDSTYYDDSVKGRFTISRDNAKNTVYLQMNSLKPEDTAMYYCAAGGQECYLTNWVSYWGQGTQVTVSSTTTPAPRPPTPAPTIASQPLSLRPEACRPAAGGAVHTRGLDFACDIYIWAPLAGTCGVLLLSLVITLYCKRGRKKLLYIFKQPFMRPVQTTQEEDGCSCRFPEEEEGGCELRVKFSRSADAPAYKQGQNQLYNELNLGRREEYDVLDKRRGRDPEMGGKPRRKNPQEGLYNELQKDKMAEAYSEIGMKGERRRGKGHDGLYQGLSTATKDTYDALHMQALPPR
# B7: AS57911bbz CAR (other)
# chain: DIQMTQSPSSLSASVGDRVTITCRASQSVSSAVAWYQQKPGKAPKLLIYSASSLYSGVPSRFSGSRSGTDFTLTISSLQPEDFATYYCQQSHALITFGQGTKVEIKGGGGSGGGGSGGGGSEVQLVESGGGLVQPGGSLRLSCAASGFNISSSYIHWVRQAPGKGLEWVAYISSYYSYTYYADSVKGRFTISADTSKNTAYLQMNSLRAEDTAVYYCARGYPYGMDYWGQGTLVTVSSTTTPAPRPPTPAPTIASQPLSLRPEACRPAAGGAVHTRGLDFACDIYIWAPLAGTCGVLLLSLVITLYCKRGRKKLLYIFKQPFMRPVQTTQEEDGCSCRFPEEEEGGCELRVKFSRSADAPAYKQGQNQLYNELNLGRREEYDVLDKRRGRDPEMGGKPRRKNPQEGLYNELQKDKMAEAYSEIGMKGERRRGKGHDGLYQGLSTATKDTYDALHMQALPPR
# B8: AS48463bbz CAR (other)
# chain: QVHLMESGGGSVQAGETLRLSCTASGFTFANSDMGWYRQAPGNACELVSIISSHGGTTYYVDSVKGRFTISRHNAENTVYLRMTSLKPEDTALYYCVADPRSNCRGGYCCGYWGPGTQVTVSSTTTPAPRPPTPAPTIASQPLSLRPEACRPAAGGAVHTRGLDFACDIYIWAPLAGTCGVLLLSLVITLYCKRGRKKLLYIFKQPFMRPVQTTQEEDGCSCRFPEEEEGGCELRVKFSRSADAPAYKQGQNQLYNELNLGRREEYDVLDKRRGRDPEMGGKPRRKNPQEGLYNELQKDKMAEAYSEIGMKGERRRGKGHDGLYQGLSTATKDTYDALHMQALPPR
# B9: AS47863bbz CAR (other)
# chain: QVQLEESGGGSVQAGETLRLSCTASGSTFGDSDMGWYRQAPGNACELVSIISSDGRTYYVDSVKGRFTISQDNAVSTVYLQMNSLKPEDTGVYYCAADLRQYCRDGRCCGYWGQGTQVTVSSTTTPAPRPPTPAPTIASQPLSLRPEACRPAAGGAVHTRGLDFACDIYIWAPLAGTCGVLLLSLVITLYCKRGRKKLLYIFKQPFMRPVQTTQEEDGCSCRFPEEEEGGCELRVKFSRSADAPAYKQGQNQLYNELNLGRREEYDVLDKRRGRDPEMGGKPRRKNPQEGLYNELQKDKMAEAYSEIGMKGERRRGKGHDGLYQGLSTATKDTYDALHMQALPPR
# B10: AS48433bbz CAR (other)
# chain: B9 chain with V2I, E5V, K86N, Q101L, Y102N
# B11: AS57659bbz CAR (other)
# chain: DIQMTQSPSSLSASVGDRVTITCRASQSVSSAVAWYQQKPGKAPKLLIYSASSLYSGVPSRFSGSRSGTDFTLTISSLQPEDFATYYCQQPYYLITFGQGTKVEIKGGGGSGGGGSGGGGSEVQLVESGGGLVQPGGSLRLSCAASGFNIYSYYIHWVRQAPGKGLEWVASIYSSYSSTYYADSVKGRFTISADTSKNTAYLQMNSLRAEDTAVYYCARSWFSYPGLDYWGQGTLVTVSSTTTPAPRPPTPAPTIASQPLSLRPEACRPAAGGAVHTRGLDFACDIYIWAPLAGTCGVLLLSLVITLYCKRGRKKLLYIFKQPFMRPVQTTQEEDGCSCRFPEEEEGGCELRVKFSRSADAPAYKQGQNQLYNELNLGRREEYDVLDKRRGRDPEMGGKPRRKNPQEGLYNELQKDKMAEAYSEIGMKGERRRGKGHDGLYQGLSTATKDTYDALHMQALPPR
# Molecular target: T1, CD30 on CD30-expressing tumor cell …
# Assay: cell-based or functional assay
Binder,"% H9 cell lysis E:T = 2:1 (LDH assay, CAR T cells) [%]","% MJ cell lysis E:T = 1:1 (LDH assay, CAR T cells) [%]"
B1,62,65
B2,63,57
B3,64,67
B4,45,41

# Molecular target: T1, CD30 on CD30-expressing tumor cell …
# Assay: cell-based or functional assay
# Remark: another data set of the same source
Binder,"% H9 cell lysis E:T = 2:1 (LDH assay, CAR T cells) [%]","% MJ cell lysis E:T = 1:1 (LDH assay, CAR T cells) [%]"
B1,62,65
B4,45,41

# Molecular target: T1, CD30 on CD30-expressing tumor cell …
# Assay: cell-based or functional assay
# Remark: another data set of the same source
row,Binder,"% MJ cell lysis E:T = 0.5:1 (LDH assay, CAR T cells) [%]"
1,B5,45.1
2,B6,24.6
3,B7,43.9
4,B4,29.9
5,B8,60.8
6,B9,65
7,B10,50.5
8,B11,42

# Molecular target: T1, CD30 on CD30-expressing tumor cell …
# Assay: cell-based or functional assay
# Remark: another data set of the same source
Binder,"% H9 cell lysis E:T = 0.2:1 (FACS method, CAR T cells) [%]","% MJ cell lysis E:T = 0.2:1 (FACS method, CAR T cells) [%]"
B1,38,58.6
B4,16,2.3
